Assay results reported in patent US20230399400A1 (I MAB BIOPHARMA, published 2023).

What was measured:
[1] = molecular target: T1, Recombinant human CD47 IgV-Fc fusion protein (Acrobiosystems) (human, UniProt Q08722 19-139); experiment: Competition ELISA: CD47-Fc coated, SIRPα-His 1 µg/mL as the blocked ligand, antibody titration
T1 construct: domain: IgV; Bought from Acrobiosystems; also called hCD47 IgV-Fc fusion protein; Recombinant CD47-Fc fusion protein
Protocol: Recombinant CD47-Fc fusion protein (Acrobiosystems) was coated at 1 μg/ml in PBS onto microtiter plates for 16 hours at 4° C. […] Plates were subsequently washed three times and incubated with an HRP-conjugated anti-His secondary antibody for 1 hour at RT. After washing, the TMB solution was added to each well for 30 min and the reaction was stopped with 2M H₂SO₄, and OD was measured at […].

[2] = molecular target: T2, biotinylated CD47 IgV protein (Acrobiosystems) (human, UniProt Q08722 19-139, biotinylated (site not stated)); experiment: ELISA, biotinylated CD47 protein (monomeric CD47-ECD) coated at 1 µg/mL, antibody titration
T2 construct: domain: IgV; Bought from Acrobiosystems; also called biotinylated human CD47-IgV domain; Biotinylated CD47 protein
Protocol: Biotinylated CD47 protein (Acrobiosystems) was coated at 1 μg/mL in PBS onto microtiter plates for 2 hours at RT. After coating of antigen, the wells were blocked with PBS/0.05% Tween (PBST) with 1% BSA for 1 hour at RT. After washing of the wells with PBST, different concentrations of anti-CD47 antibodies were added to the wells and incubated for 1 hour at RT. For detection of the binding of the antibodies to CD47, the HRP conjugated secondary antibodies against human Fc (Jackson Immuno Research) were added followed by the addition of fluorogenic substrates (Roche). Between all incubation steps, the wells of the plate were washed with PBST three times. Fluorescence was measured in a TECAN Spectrafluor plate reader.

[3] = molecular target: T3, human CD47 (hCD47) expressed on the surface of cells (human, UniProt Q08722 19-323); experiment: Flow cytometry on Raji cells endogenously expressing human CD47
T3 construct: whole, on cells; also called CD47+ Raji cells; CD47 on tumor cell lines
Protocol: Raji cells, which endogenously express human CD47 on the surface, were stained with different concentrations of anti-CD47 antibodies at 4° C. for 30 minutes. Then, the cells were washed with PBS three times, followed by incubation with APC-labeled anti-human Fc specific antibody (Invitrogen) at 4° C. for 30 minutes. Binding was measured using a FACSCanto (Becton-Dickinson).

B1: anti-CD47 antibody B2B (antibody, human IgG4 S228P, kappa, V domains shown)
VH: EVQLVESGGGLVKPGGSLRLSCAASGLTFERAWMNWVRQAPGKGLEWVGRIKRKTDGETTDYAAPVKGRFSISRDDSKNTLYLQMNSLKTEDTAVYYCAGSNRAFDIWGQGTMVTVSS
VL: DIVMTQSPDSLAVSLGERATINCKSSQSVLYAGNNRNYLAWYQQKPGQPPKLLINQASTRASGVPDRFSGSGSGTEFTLIISSLQAEDVAIYYCQQYYTPPLAFGGGTKLEIKR
notes: also called lemzoparlimab; TJ011133
Binder B1 has an EC50 [1] of 0.18 nM, an EC50 [2] of 0.09 nM and an EC50 [3] of 0.12 nM.

B2: reference anti-CD47 antibody 2A1 (antibody, V domains shown)
VH: EVQLQQSGAELVRSGASVKLSCTASGFNIKDYYLHWVKQRPEQGLEWIGWIDPDNGDTEFAPKFQGKATMTADTSSNTAYLQLSSLTSEDTAVYYCNAAYGSSSYPMDYWGQGTSVTV
VL: DIKMTQSPSSLYASLGERVTITCKASQDIHRYLSWFQQKPGKSPKILIYRANRLVDGVPSRFSGSGSGQDYSLTISSLEYEDMGIYYCLQYDEFPYTFGGGTKLEMK
Work on B2 yielded an EC50 [2] of 0.25 nM.
